Values of other authors as cited in patent US11358994B2, “Fatty acid modified human epidermal growth factor” (Saint Louis University, priority 2017, dated 2022).

Conditions: species not stated

Question: For “hEGF: 6 kD protein made of 53 amino acids (SEQ ID NO: 1)”, which half-life in vivo is on record?
Answer: ~2 min
